The source of these data is patent US20240293499A1.

Test [1] concerns the target T1, murine VISTA on mouse splenocytes (macrophages, neutrophils, CD4+ T cells) (mouse) (UniProt Q9D659).
T1 sequence (looked up): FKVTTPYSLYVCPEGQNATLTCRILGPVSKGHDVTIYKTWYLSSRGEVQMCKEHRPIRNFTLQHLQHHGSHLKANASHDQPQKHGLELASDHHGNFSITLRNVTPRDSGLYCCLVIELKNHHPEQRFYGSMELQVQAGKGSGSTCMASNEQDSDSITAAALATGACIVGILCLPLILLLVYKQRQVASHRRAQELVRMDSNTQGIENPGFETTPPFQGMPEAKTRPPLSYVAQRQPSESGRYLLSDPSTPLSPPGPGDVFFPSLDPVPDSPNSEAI
The experiment in a line: cell-based or functional assay.

Test [2] deals with hVISTA-COMP-his, pentameric form comprising the extracellular IgV domain of human VISTA (human) (UniProt Q9H7M9). Nature of the test: SPR (BIAcore T200), single-cycle kinetics; hVISTA-COMP-his captured on anti-His chip, mAb as analyte; 1:1 Langmuir fit.
The target of test [3] is T2, mVISTA-COMP-his, pentameric form comprising the extracellular IgV domain of murine VISTA (mouse) (UniProt Q9D659).
T2 sequence (Q9D659 whole entry, looked up): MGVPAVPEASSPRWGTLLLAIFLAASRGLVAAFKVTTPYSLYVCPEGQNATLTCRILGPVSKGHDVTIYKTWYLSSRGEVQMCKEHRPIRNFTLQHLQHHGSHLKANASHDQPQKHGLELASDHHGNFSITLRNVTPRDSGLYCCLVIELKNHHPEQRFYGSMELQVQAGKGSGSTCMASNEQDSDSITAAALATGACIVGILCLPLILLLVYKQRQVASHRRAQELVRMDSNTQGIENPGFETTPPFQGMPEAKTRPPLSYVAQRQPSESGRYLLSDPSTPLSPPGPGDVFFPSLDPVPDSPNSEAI
Nature of the test: SPR (BIAcore T200), single-cycle kinetics; mVISTA-COMP-his captured on anti-His chip, mAb as analyte; 1:1 Langmuir fit. In general terms: Surface plasmon resonance follows binding to a sensor surface in real time, without labels.

Test [4] concerns the target hVISTA-COMP-his, pentameric form comprising the extracellular IgV domain of human VISTA (human) (UniProt Q9H7M9). Nature of the test: SPR (BIAcore T200), single-cycle kinetics, hVISTA-COMP-his captured on anti-His chip, mAb injected at 20, 40, 80, 160, 320 nM, 1:1 fit.
Test [5] concerns the target T2, mVISTA-COMP-his, pentameric form comprising the extracellular IgV domain of murine VISTA (mouse). The experiment in a line: SPR (BIAcore T200), single-cycle kinetics, mVISTA-COMP-his captured on anti-His chip, mAb injected at 20, 40, 80, 160, 320 nM, 1:1 fit.

Chain of hVISTA-COMP-his, pentameric form comprising the extracellular IgV domain of human VISTA (human) (Q9H7M9 33-194): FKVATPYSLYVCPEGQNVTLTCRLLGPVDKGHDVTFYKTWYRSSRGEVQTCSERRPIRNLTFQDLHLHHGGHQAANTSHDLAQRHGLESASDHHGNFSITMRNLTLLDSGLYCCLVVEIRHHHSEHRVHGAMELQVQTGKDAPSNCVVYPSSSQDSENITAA

B1: rat anti-hmVISTA mAb 7C6 (antibody, part only; not given: light chain, rat IgG2a, V domains shown, part only)
VH: QVQLQQSGAELAKPGSSVKISCKASGYTFTSYYISWIKQTTGQGLEYIGYINTGSGGTNYNEKFKGKATLTVDKSSSTAFMQLSSLTPDDSAVYYCAREGTFYSGDVGYWYFDFWGPGSMVTVSS
One may read the Kd as the concentration at which binding is half-saturated. A higher Kd goes with lower affinity. What is called koff is a measure of how fast the partners let go of each other. The low end stands for a long-lived complex, the high end for a short-lived complex. The kon is a measure of how fast the partners come together. The low end stands for slow association, the high end for fast association. As for B1, in test [1], the reduction of proliferation of ConA-stimulated CD4+ T cells, mouse splenocytes came to 4%. Moreover, the Kd in test [2] was 840 nM; in test [3] it was 3 nM; in test [4] it was 838 nM; in test [5], 3 nM. Also, the koff in test [4] was 0.000331 s⁻¹; in test [5], 0.000177 s⁻¹. Besides, the kon in test [4] was found to be 395 M⁻¹ s⁻¹; in test [5] it was 59000 M⁻¹ s⁻¹.
